Measurements published in the DeepSol protein solubility set.

Experiment: soluble on expression in E. coli; label from the status in PepcDB or PDB records

Row | Sequence | soluble on expression in E. coli
1 | MAVLAVVLLLACLERAVAQTFGCSNTKINDQARKMFYDAHNDARRSMAKGLEPNKCGLLSGGKNVYELNWDCEMEAKAQEWADGCPSSFQTFDPTWGQNYATYMGSIADPLPYASMAVNGWWSEIRTVGLTDPDNKYTNSAMFRFANMANGKASAFGCAYALCAGKLSINCIYNKIGYMTNAIIYEKGDACTSDAECTTYSDSQCKNGLCYKAPQAPVVETFTMCPSVTDQSDQARQNFLDTHNKLRTSLAKGLEADGIAAGAFAPMAKQMPKLKYSCTVEANARTWAKGCLYQHSTSAQRPGLGENLYMISINNMPKIQTAEDSSKAWWSELKDFGVGSDNILTQAVFDRGVGHYTQMAWEGTTEIGCFVENCPTFTYSVCQYGPAGNYMNQLIYTKGSPCTADADCPGTQTCSVAEALCVIP | not soluble
2 | MGSDKIHHHHHHMLEGIFDINHVFDEEGIKTLKRFGWDGSVAVQNHNEYSEEKINTAVEYGENCEFKVYSGVKISTKNQNEMEKAVKKYRNKVDILLVEGGDVKINRRVLEMNDVDILSTPELNRMDNGLDHILARLGSTNRVAVELNFGNLLKSKNYDRSKILWAFQRNLKLSKKYDTPVVISSGANDIYGIKAPGDLRGFLNTVADPLYSKKIIETTSKIIDYRLYLKNKNVLMPGLEIVEE | not soluble
3 | MSYLDFNSMLNNLYTKFGDSSFENVFYLPEPKISKKSTRIDWININVFLKSVNRSIEHFINYLKNDRKISTTYQNNILIIQGKYRKEDINKMMLEYVNKFCKCPICSSYDTLLVKDGTIRKEKIICSKCKSTTFCS | not soluble
4 | SNDFNWTSVFNLSHNRNKIVSLNGLLDQTIEGTWFIHKVGLPYHTFYVKEFAGVDPLTGSAQYYLNTKNEDGSYNRELTTDAAKAESIPYKTATPKVSGGFTNILNYKWIDLTFTLTYSLGGYSFDKLGTYIENGSSSIYSSRYNLPAYMMNRWQKPGDQTDIPRFVYGEPATSTNSSRYIHSTDHLRLKNFTLGFTLPNQWTQKLMIDKVRVYFSGNNLLTWAKWKQYDPETPVNGEVFCEAPAMRTFSFGAQLSF | not soluble
5 | MSLKSLEGSWCLVLGASSGIGRAIALGLAREGVHVAGVHFDTAARAEEVEALVEEIRSLGVEARFFNTNAASKATRAELVPQLAELTGANGGIRILVHSLAFGTLVPFTPREGWDRPISVRQLEMTLDVMAHSLVYWTQDLLAAGLLRSGSKVYAMTSAGTSQHLPSYGAVSAAKSALESHVRQLAAELATSGIAVNALRAGTTVTPALQRIPEHAGYIERAAENNPHGRLTRPDDVADAVALLSRTESSWLTGNTIGIDGGELHEGHHHHHH | soluble
6 | MKERTIQPVNNGLNGNITIPGDKSISHRAVMFGAIAEGTTTIKGFLPGADCLSTISCFKEMGVDIVQNGDEVTVVGKGLEGLQEPKAVLDVGNSGTTIRLMSGILANTPFLSCVQGDTSIAKRPMKRVTNPLKQMGANIDGREEGTFTPLTIRGGDLKAIEYTSPVASAQVKSAILLAGLRAEGVTAVTEPHISRDHTERMLEAFGVKVTREGKTVKLAGGQKLTATDVQVPGDVSSAAFFLVAGAIIPNSKLVLENVGMNPTRTGIIDVLEKMGATFTVEPINEGASEPAANITIETSSLKGIEIGGDIIPRLIDEIPVIALAATQAEGITVIKDAHELKVKETNRIDTVVAELTKLGARIEATDDRMIIYGKSALKGNTVNSYGDHRIGMMLAIAGCIAEGKTIIEDAEAVGVSYPTFFEELQKLAK | not soluble
7 | MNFLSQRYTGKSLHPDETKCYKNFTQTAQKLTHRLAESINHYVNHIDCVINTNLYNRLLAEKKESNHMIYKERETWLEAILNTLPDHVFILDESGRYIESFGGTHHSKTFNAERYIGLQLSDVLSPTKADELMGFIFDVMQDNETKVVKYNLSLHDHLLLPIEELEALENPEEMWFEAIIKPVNAPENANKLVIWSVRDITKTHLLEQRLK | not soluble
8 | MIKLSNITKVFQQGTRTIQALNNVSLHVPAGQIYGVIGASGAGKSTLIRCVNLLERPTEGSVQVGGQELTTLSESELTKARRQIGMIFQHFNLLSSRTVFGNVALPLELDNTPKEEIKRRVTELLDLVGLGDKHDSYPANLSGGQKQRVAIARALASNPKVLLCDEATSALDPATTRSILELLKDINRRLGLTILLITHEMDVVKRICDCVAVISNGELIEQDTVSEVFSHPKTPLAQKFIQSTLHLDIPEDYQARLKASPETDSVPMLRMEFTGQSVDAPLLSETARRFNVNNNIISAQMDYAGGVKFGIMLTEMHGTQEETQAAIAWLQDHHVKVEVLGYV | not soluble
9 | MGSDKIHHHHHHAEITLLKQDPQAGDPLSRLNFTVGGSIRPQFNMMTGDGDKGSYKRNGFDGGTRFRFAADYYLFDDISWISYYELGVNIPALFDWDNHYAEGANNTTRRMLYTGLKSDTWGTLTYGQQNSIYYDVVGVKTDIWDYDMIGQAPGNGINGDYDGSYRSRNMLKYKKTVGDVDLYGSYLFEDSEYLPGNGLRYKRKGGGSVGADYHIMKDLTWGTAWNYTRAEMRDPSSADSKTYDQNIVGTALSWTPDNWTFSFGGGWYQNFLTTKKTDVHNYFAGDAWGIEYFAGYKFPINQYAVKSIQPYFMGDRLEYVNGRNYQRIDNGLGISFQLDYGFRVDYEHVFTSSTDNLGDMNLVRLRYDF | not soluble
10 | MGLVDYAGSESESDEEMETQQKNSLAPQNQQLVDDEAFFDNTEKSSSPNMNKEDVLEELVKPKEWEVKLAEKARRKLEKKALKKAQKEERKKEKKLAKKAMKVEKIPKIGGGIQKAKGKVIISAFGALAGITGENSSDDSDNEGAAVATVKPKLGNSFLSNLPAPKGRDNRSDGANVFDKSMVPHSVSKKATPAAAPVFKPAPAPKLPDDSDDDDDGPTDFFGFSSAPTRKESEIPSEIPYMTMNSSMDVVGPSRPDEGMDPRQMYEMPEEEEDVQEGPSASNAWLHRKINDEQAHKLLMRFSHDIGQEERRSINEMANSIVDVNVDDALGPDVKTNIIKNLGHRAFVEATSAPLPQVQTQGQMSRRKHQITYLASLAVSREEQLKDQWADQKQSKRMARQKYGF | not soluble
11 | MSLTVNNEISKAFSKHADDYERVAKVQKEIGSRLFERLQYLKIAPRRILDLGCGPGFFSKELALLYPKAQIVGMDLSFAMLEQARKKQGWRRKWPLVSADMQKMPFATGAFDLVFANQVIHWSSSLGMVFRELNRVMNVNGCLMFTTLGPDTFKELQTAWSAANQYAHVNEFVDMHDIGDCLIAEHFMDPVIDMELLSIHYETLPQLLLALKTQGVRNINPKRNHGLTGKSAWKQFEAQYATMRTTTGKYPLTYEVVYGQAWKGAQRKMEQGEGHHHHHH | not soluble
12 | AAKHHFDEIHYLDIVDCNGGDHHKAFATNFNPEINIREITQKGKYWENGRWIETEPQEIHKTLTYPSIGERESYLLYHEELESLVKNFPTIKRARFWMTFGQEYLTHLRVMQNIGMTRIDPIMYNGVEIVPIQFLKAVLPNPGDLGENYTGETSIGCRIRGIRDGKERTYYIWNNCSHEVAYKETGTQG | not soluble
13 | MTATAQQLEYLKNSIKSIQDYPKPGILFRDVTSLLEDPKAYALSIDLLVERYKNAGITKVVGTEARGFLFGAPVALGLGVGFVPVRKPGKLPRETISETYDLEYGTDQLEIHVDAIKPGDKVLVVDDLLATGGTIEATVKLIRRLGGEVADAAFIINLFDLGGEQRLEKQGITSYSLVPFPGH | soluble
14 | APVNWGPGETNDSTTVEPVLDGPYQPTTFNPPVDYWMLLAPTAAGVVVEGTNNTDRWLATILVEPNVTSETRSYTLFGTQEQITIANASQTQWKFIDVVKTTQNGSYSQYGPLQSTPKLYAVMKHNGKIYTYNGETPNVTTKYYSTTNYDSVNMTAFCDFYIIPREEESTCTEYINNGLPPIQNTR | soluble
15 | MNPVKNRSEVLFIYDVKWANPNGDPLDENRPRFDEETSRLFVTDVRLKRTVRDYLAECYDETLWVTGEAVVPEDRVKELGIKDVNDACQKCIDIRLFGAVIPQSKKGAMESSITGPVQFRYGTSLHRVKLMTIQGTAAFATENSKQRSFREDQVVPYALIAFYGVINQNSAKFTGLTEEDVSKLLEGIWMGTKNLITRSKMEHNPRLLMRVVYKEGVNYHSGELDYLVKVVSEKEDEEIRDISELKLDVTELKQVLESLKDKIERIEYSVDNRLKLAENGEEKPFEEIFGGFQLVKLEW | not soluble
